Biological target: T1, EphB2-GFP (mouse, UniProt P54763 19-986)
T1 construct: ephrin receptor EphB2 (plasmid Ephb2-GFP, Kao et al., 2009); also called EphB2 fused to GFP; wild-type EphB2-GFP; source: HEK293 (ATCC CRL 1573), transfected (calcium phosphate), in lysate
T1 sequence (looked up): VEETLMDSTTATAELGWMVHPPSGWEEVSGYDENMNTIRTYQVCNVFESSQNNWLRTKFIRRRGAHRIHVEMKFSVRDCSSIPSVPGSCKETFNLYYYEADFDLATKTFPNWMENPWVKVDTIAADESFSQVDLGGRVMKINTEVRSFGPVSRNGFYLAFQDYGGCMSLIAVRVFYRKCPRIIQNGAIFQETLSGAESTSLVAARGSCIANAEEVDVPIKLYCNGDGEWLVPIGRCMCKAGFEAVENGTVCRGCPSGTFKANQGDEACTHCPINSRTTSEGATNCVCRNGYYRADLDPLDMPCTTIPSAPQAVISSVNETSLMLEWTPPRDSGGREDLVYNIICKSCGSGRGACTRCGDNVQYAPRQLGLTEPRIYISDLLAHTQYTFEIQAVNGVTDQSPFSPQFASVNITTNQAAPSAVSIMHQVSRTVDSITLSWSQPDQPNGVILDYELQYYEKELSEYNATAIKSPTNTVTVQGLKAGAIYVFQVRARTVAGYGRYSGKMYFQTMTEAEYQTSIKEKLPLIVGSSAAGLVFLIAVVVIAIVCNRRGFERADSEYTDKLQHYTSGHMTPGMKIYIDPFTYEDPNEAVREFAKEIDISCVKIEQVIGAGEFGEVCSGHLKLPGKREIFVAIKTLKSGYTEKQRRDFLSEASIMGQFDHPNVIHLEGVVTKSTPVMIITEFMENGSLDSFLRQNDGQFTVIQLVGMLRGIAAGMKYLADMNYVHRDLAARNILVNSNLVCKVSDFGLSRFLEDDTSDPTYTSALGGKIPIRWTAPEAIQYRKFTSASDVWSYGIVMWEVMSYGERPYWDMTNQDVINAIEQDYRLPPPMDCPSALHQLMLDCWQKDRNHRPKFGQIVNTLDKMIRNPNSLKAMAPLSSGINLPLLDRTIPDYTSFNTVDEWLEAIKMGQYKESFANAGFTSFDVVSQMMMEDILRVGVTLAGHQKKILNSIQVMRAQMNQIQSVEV
Assay: co-IP; anti-GFP antibody on ProteinA/G agarose, overnight, pre-cleared lysates of co-transfected HEK293 cells (10mM Tris-Cl pH 8, 137 mM NaCl, 2mM EDTA, 1% NP40); blot for Myc; in the ligand experiments cells were starved 2 hr in OPTIMEM and incubated 15 min at 37°C with pre-clustered Fc, eB2-Fc or eA3-Fc (1.5 μg/ml), Netrin-1 (250 ng/ml) or eB2-Fc+Netrin-1 before lysis
Settings: partners not purified

fold increase of the association after pre-incubation with eB2-Fc (against Fc): ~22 fold
B1: Unc5c-Myc (receptor)
chain: not shown
notes: Netrin receptor Unc5c, mouse (plasmid mUnc5c-Myc, gift of Franck Polleux); also called mUnc5c-Myc; source: HEK293 (ATCC CRL 1573), transfected (calcium phosphate), in lysate
